B1: Mint 2 (protein)
chain: MAHRKRQSTASSMLDHRARPGPIPHDQEPENEDTELPLESYVPTGLELGTLRPDSPTPEEQECHNHSPDGDSSSDYVNNTSEEEDYDEGLPEEEEGVTYYIRYCPEDDSYLEGMDCNGEEYLAHGAHPVDTDECQEAVEDWTDSVGPHTHSHGAENSQEYPDSHLPIPEDDPTVLEVHDQEEDGHYCPSKESYQDYYPPETNGNTGGASPYRMRRGDGDLEEQEEDIDQIVAEIKMSLSMTSITSASEASPEHMPELDPGDSTEACSPSDTGRGPSRQEARPKSLNLPPEVKHSGDPQRGLKTKTRTPEERPKWPQEQVCNGLEQPRKQQRSDLNGPTDNNNIPETKKVASFPSFVAVPGPCEPEDLIDGIIFAANYLGSTQLLSERNPSKNIRMMQAQEAVSRVKRMQKAAKIKKKANSEGDAQTLTEVDLFISTQRIKVLNADTQETMMDHALRTISYIADIGNIVVLMARRRMPRSASQDCIETTPGAQEGKKQYKMICHVFESEDAQLIAQSIGQAFSVAYQEFLRANGINPEDLSQKEYSDIINTQEMYNDDLIHFSNSENCKELQLEKHKGEILGVVVVESGWGSILPTVILANMMNGGPAARSGKLSIGDQIMSINGTSLVGLPLATCQGIIKGLKNQTQVKLNIVSCPPVTTVLIKRPDLKYQLGFSVQNGIICSLMRGGIAERGGVRVGHRIIEINGQSVVATAHEKIVQALSNSVGEIHMKTMPAAMFRLLTGQETPLYI
B2: Mint 1 (protein)
chain: MNHLEGSAEVEVADEAPGGEVNESVEADLEHPEVEEEQQPSPPPPAGHAPEDHRAHPAPPPPPPPQEEEEERGECLARSASTESGFHNHTDTAEGDVLAAARDGYEAERAQDADDESAYAVQYRPEAEEYTEQAEAEHAEAAQRRALPNHLHFHSLEHEEAMNAAYSGYVYTHRLFHRAEDEPYAEPYADYGGLQEHVYEEIGDAPELEARDGLRLYERERDEAAAYRQEALGARLHHYDERSDGESDSPEKEAEFAPYPRMDSYEQEEDIDQIVAEVKQSMSSQSLDKAAEDMPEAEQDLERAPTPGGGHPDSPGLPAPAGQQQRVVGTPGGSEVGQRYSKEKRDAISLAIKDIKEAIEEVKTRTIRSPYTPDEPKEPIWVMRQDISPTRDCDDQRPVDGDSPSPGSSSPLGAESSITPLHPGDPTEASTNKESRKSLASFPTYVEVPGPCDPEDLIDGIIFAANYLGSTQLLSDKTPSKNVRMMQAQEAVSRIKTAQKLAKSRKKAPEGESQPMTEVDLFISTQRIKVLNADTQEPMMDHPLRTISYIADIGNIVVLMARRRMPRSNSQENVEASHPSQDAKRQYKMICHVFESEDAQLIAQSIGQAFSVAYQEFLRANGINPEDLSQKEYSDLLNTQDMYNDDLIHFSKSENCKDVFIEKQKGEILGVVIVESGWGSILPTVIIANMMHGGPAEKSGKLNIGDQIMSINGTSLVGLPLSTCQSIIKGLKNQSRVKLNIVRCPPVTTVLIRRPDLRYQLGFSVQNGIICSLMRGGIAERGGVRVGHRIIEINGQSVVATPHEKIVHILSNAVGEIHMKTMPAAMYRLLTAQEQPVYI
B3: Mint 3 (protein, rat, UniProt O70248 1-569, looked up)
chain: MEFLPEPQHPPGPPTMDLEEPKGPEVPSEDHPSNTQWALGPRGPDTLSEMELDTSSVRALVQQLEALPSDLGGQFPDGAPCPLHIATGQGLATQENLDAGGLLSAEAGGDNLLGLLRCEASLPAQSVPPDPAQAAPRLLQPPEDPGGDPGWMEGTEPADNRSSSSSPELWLETAPLVTHRDPPVGTQSQETLASCPAVSEVPGPCGQEELMDGVLFGAKYLGSTQLLSERNPPPSTRMGQAQEAMDRVKAPEGETQPMTEVDIFISTKRVKVLAADSQDALMDHALQTISYIADIGPVLVLMARRRLAKRTTSQDRQRQLYKMLCHVFHSEDAQLIAQAIGQAFSIAYSQFLQENRIDPSQVGMQPSASASHPHNGDLDHFCNSQNCREVCIQKRPGEGLGVALVESGWGSLLPTAVIANLLHGGPAERCGALSIGDRVTAINGTSLVGLSLAACQAAVREVRRHSSVTLSIIHCPPVTTAVIHRPHVREQLGFCVENGIICSLLRGSAAERGGVRVGHRIIEVNGQSVVAMPHARIIQLLTETREIHIKTMPAATYRLLTGQEQPVYL

The experiment addresses APP695 (human) (UniProt P05067). Put plainly: cell-based or functional assay.
B1 had a steady-state levels of transfected APP695 in HEK293 cells (quantitative immunoblot) of less than 3 fold.

In turn, B2 returned a steady-state levels of transfected APP695 in HEK293 cells (quantitative immunoblot) of less than 3 fold.

B3: the steady-state levels of transfected APP695 in HEK293 cells (quantitative immunoblot) was less than 3 fold.

The values above are taken from patent US20030036169A1.
